Reference: patent EP3461842A1 (Amgen Research (Munich) GmbH, dated 2019)
Where a chain is given by its changes, count along the chain named. Numbers in names are those of the source. Values belong to the binder of their own block, whether it stands above or below them.

Tests used:
[1] = target: T1, 1-27 CD3-Fc (N-terminal amino acids 1-27 of the mature human CD3 epsilon chain fused to the hinge and Fc … (human)); experiment: ELISA, captured 1-27 CD3-Fc, periplasmic scFv
T1 construct: The synthetic gene also codes a 19 amino acid immunoglobulin leader; also called 27 aa huCD3E; human CD3 epsilon (aa 1-27)- Fc fusion protein

[2] = target: T2, 1-27 CD3-EpCAM, swine 27 mer (Sus scrofa CD3 epsilon 1-27, Flag tag, cynomolgus EpCAM) (Sus scrofa; cynomolgus monkey); experiment: FACS on transfected 293-HEK cells
T2 construct: Negative control, on transfected cells
T2 chain: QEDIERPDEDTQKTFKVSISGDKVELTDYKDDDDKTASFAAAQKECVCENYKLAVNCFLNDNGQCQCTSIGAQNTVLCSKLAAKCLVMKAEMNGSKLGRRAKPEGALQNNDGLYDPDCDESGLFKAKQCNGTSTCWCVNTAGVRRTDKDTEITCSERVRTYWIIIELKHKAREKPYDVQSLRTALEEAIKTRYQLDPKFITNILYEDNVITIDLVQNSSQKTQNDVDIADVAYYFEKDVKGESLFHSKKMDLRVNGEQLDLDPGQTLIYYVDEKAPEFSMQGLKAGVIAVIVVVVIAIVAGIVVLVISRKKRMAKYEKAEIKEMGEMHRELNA

[3] = target: T3, 1-27 CD3-EpCAM, human 27 mer (N-terminal amino acids 1-27 of human CD3 epsilon, Flag tag, cynomolgus EpCAM) (human; cynomolgus monkey); experiment: FACS, 293-HEK transfectant
T3 chain: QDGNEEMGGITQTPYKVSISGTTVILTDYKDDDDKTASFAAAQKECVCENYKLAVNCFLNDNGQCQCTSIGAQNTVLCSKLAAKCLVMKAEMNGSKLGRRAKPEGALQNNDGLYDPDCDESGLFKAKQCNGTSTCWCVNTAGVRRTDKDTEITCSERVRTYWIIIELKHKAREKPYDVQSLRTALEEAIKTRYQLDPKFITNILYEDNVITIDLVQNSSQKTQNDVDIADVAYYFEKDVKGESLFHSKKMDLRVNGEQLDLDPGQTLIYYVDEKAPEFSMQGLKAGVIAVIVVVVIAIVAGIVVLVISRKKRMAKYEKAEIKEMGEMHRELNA

[4] = target: T4, 1-27 CD3-EpCAM, squirrel monkey 27 mer (Saimiri sciureus CD3 epsilon 1-27, Flag tag, cynomolgus EpCAM) (Saimiri sciureus; cynomolgus monkey); experiment: FACS, 293-HEK transfectant
T4 construct: On transfected cells
T4 chain: T3 chain with M7I, G9D, I10T, T13N, I25T

[5] = target: T1, 1-27 CD3-Fc (N-terminal amino acids …); experiment: SPR (Biacore 2000), 1-27 CD3-Fc coupled to CM5 chip, Langmuir model
[6] = target: T5, human CD3 (epsilon) on human T cells (HPB-ALL cell line, human PBMC) (human, UniProt P07766 23-207); experiment: FACS, HPB-ALL
T5 construct: whole, on cells; also called native CD3
T5 sequence (P07766 23-207): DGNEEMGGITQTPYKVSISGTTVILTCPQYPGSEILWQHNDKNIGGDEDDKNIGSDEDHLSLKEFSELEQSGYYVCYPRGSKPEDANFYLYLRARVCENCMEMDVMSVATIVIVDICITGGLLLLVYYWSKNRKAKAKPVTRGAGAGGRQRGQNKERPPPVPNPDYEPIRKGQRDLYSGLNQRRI

B3: EGFR-21-63 LH x A2J HLP (bispecific antibody)
chain: DIVLTQSPASLPVSLGQRATISCRASQSVSSSTYSYIHWYQQKPGQPPKLLITYASNLESGVPARFSGSGSGTDFTLDIHPVEEDDSSTYYCQHSWEIPFTFGSGTKLEIKGGGGSGGGGSGGGGSQVQLQQSGPDLVKPGASVKMSCKASGHTFTDCVIIWVKQRAGQGLEWIGQIYPGTGRSYYNEIFKGKATLTADKSSNTVHIQLSSLTSEDSAVYFCALSTLIHGTWFSYWGQGTLVTVSSGGGGSEVQLLESGGGLVQPGGSLKLSCAASGFTFNVYAMNWVRQAPGKGLEWVARIRSKYNNYATYYADSVKKRFTISRDDSKNTAYLQMNNLKTEDTAVYYCVRHGNFGNSYLSWWAYWGQGTLVTVSSGGGGSGGGGSGGGGSELVVTQEPSLTVSPGGTVTLTCRSSTGAVTSGYYPNWVQQKPGQAPRGLIGATDMRPSGTPARFSGSLLGGKAALTLSGVQPEDEAEYYCALWYSNRWVFGGGTKLTVL
notes: plus C-terminal His6 tag; also called EGFR LH x A2J HLP
Kd [5]: 0.249 µM

B4: EGFR-21-63 LH x E2M HLP (bispecific antibody)
chain: B3 chain with V282G, K319E, G353R, W363F
notes: plus C-terminal His6 tag; also called EGFR LH x E2M HLP
Kd [5]: 2.46 µM

More lines, now with the values ahead:

binding result [1]: binds
B1: A2J HLP single-chain antibody (scFv)
scFv: EVQLLESGGGLVQPGGSLKLSCAASGFTFNVYAMNWVRQAPGKGLEWVARIRSKYNNYATYYADSVKKRFTISRDDSKNTAYLQMNNLKTEDTAVYYCVRHGNFGNSYLSWWAYWGQGTLVTVSSGGGGSGGGGSGGGGSELVVTQEPSLTVSPGGTVTLTCRSSTGAVTSGYYPNWVQQKPGQAPRGLIGATDMRPSGTPARFSGSLLGGKAALTLSGVQPEDEAEYYCALWYSNRWVFGGGTKLTVL
notes: Crude periplasmic preparation, Flag and His6 tags

binding result [2]: no binding | binding result [1]: binds | binding result [3]: binds | binding result [4]: binds
B2: E2M HLP single-chain antibody (scFv)
scFv: B1 scFv with V31G, K68E, G102R, W112F
notes: as for B1

binding result [6]: binds
B5: MCSP-G4 HLP x E2M HLP (bispecific antibody)
chain: QVQLVQSGAEVKRPGASMKVSCKASGYTFTNYYIHWVRQAPGQGLEWMGWINPNSGATNYAQKFQGRVTMTRDTSTSTVYMELSSLRSEDTAVYYCAKSWVSWFASWGQGTLVTVSSGGGGSGGGGSGGGGSELVMTQSPDSLAVSLGERATINCKSSQSVLNSSNNRNYLAWYQQKPGQPPKLLIYWASTRESGVPDRFSGSGSGTDFTLTISGLQAEDVAVYYCQQHYSTPFTFGPGTKVDIKSGGGGSEVQLLESGGGLVQPGGSLKLSCAASGFTFNGYAMNWVRQAPGKGLEWVARIRSKYNNYATYYADSVKERFTISRDDSKNTAYLQMNNLKTEDTAVYYCVRHRNFGNSYLSWFAYWGQGTLVTVSSGGGGSGGGGSGGGGSELVVTQEPSLTVSPGGTVTLTCRSSTGAVTSGYYPNWVQQKPGQAPRGLIGATDMRPSGTPARFSGSLLGGKAALTLSGVQPEDEAEYYCALWYSNRWVFGGGTKLTVL
notes: plus C-terminal His6 tag
